In PMC2169462 (The Journal of Cell Biology, 2001):

B1: recombinant Kap95p (natural protein)
chain: MSTAEFAQLLENSILSPDQNIRLTSETQLKKLSNDNFLQFAGLSSQVLIDENTKLEGRILAALTLKNELVSKDSVKTQQFAQRWITQVSPEAKNQIKTNALTALVSIEPRIANAAAQLIAAIADIELPHGAWPELMKIMVDNTGAEQPENVKRASLLALGYMCESADPQSQALVSSSNNILIAIVQGAQSTETSKAVRLAALNALADSLIFIKNNMEREGERNYLMQVVCEATQAEDIEVQAAAFGCLCKIMSLYYTFMKPYMEQALYALTIATMKSPNDKVASMTVEFWSTICEEEIDIAYELAQFPQSPLQSYNFALSSIKDVVPNLLNLLTRQNEDPEDDDWNVSMSAGACLQLFAQNCGNHILEPVLEFVEQNITADNWRNREAAVMAFGSIMDGPDKVQRTYYVHQALPSILNLMNDQSLQVKETTAWCIGRIADSVAESIDPQQHLPGVVQACLIGLQDHPKVATNCSWTIINLVEQLAEATPSPIYNFYPALVDGLIGAANRIDNEFNARASAFSALTTMVEYATDTVAETSASISTFVMDKLGQTMSVDENQLTLEDAQSLQELQSNILTVLAAVIRKSPSSVEPVADMLMGLFFRLLEKKDSAFIEDDVFYAISALAASLGKGFEKYLETFSPYLLKALNQVDSPVSITAVGFIADISNSLEEDFRRYSDAMMNVLAQMISNPNARRELKPAVLSVFGDIASNIGADFIPYLNDIMALCVAAQNTKPENGTLEALDYQIKVLEAVLDAYVGIVAGLHDKPEALFPYVGTIFQFIAQVAEDPQLYSEDATSRAAVGLIGDIAAMFPDGSIKQFYGQDWVIDYIKRTRSGQLFSQATKDTARWAREQQKRQLSL
B2: recombinant Kap121p (natural protein)
chain: MSALPEEVNRTLLQIVQAFASPDNQIRSVAEKALSEEWITENNIEYLLTFLAEQAAFSQDTTVAALSAVLFRKLALKAPPSSKLMIMSKNITHIRKEVLAQIRSSLLKGFLSERADSIRHKLSDAIAECVQDDLPAWPELLQALIESLKSGNPNFRESSFRILTTVPYLITAVDINSILPIFQSGFTDASDNVKIAAVTAFVGYFKQLPKSEWSKLGILLPSLLNSLPRFLDDGKDDALASVFESLIELVELAPKLFKDMFDQIIQFTDMVIKNKDLEPPARTTALELLTVFSENAPQMCKSNQNYGQTLVMVTLIMMTEVSIDDDDAAEWIESDDTDDEEEVTYDHARQALDRVALKLGGEYLAAPLFQYLQQMITSTEWRERFAAMMALSSAAEGCADVLIGEIPKILDMVIPLINDPHPRVQYGCCNVLGQISTDFSPFIQRTAHDRILPALISKLTSECTSRVQTHAAAALVNFSEFASKDILEPYLDSLLTNLLVLLQSNKLYVQEQALTTIAFIAEAAKNKFIKYYDTLMPLLLNVLKVNNKDNSVLKGKCMECATLIGFAVGKEKFHEHSQELISILVALQNSDIDEDDALRSYLEQSWSRICRILGDDFVPLLPIVIPPLLITAKATQDVGLIEEEEAANFQQYPDWDVVQVQGKHIAIHTSVLDDKVSAMELLQSYATLLRGQFAVYVKEVMEEIALPSLDFYLHDGVRAAGATLIPILLSCLLAATGTQNEELVLLWHKASSKLIGGLMSEPMPEITQVYHNSLVNGIKVMGDNCLSEDQLAAFTKGVSANLTDTYERMQDRHGDGDEYNENIDEEEDFTDEDLLDEINKSIAAVLKTTNGHYLKNLENIWPMINTFLLDNEPILVIFALVVIGDLIQYGGEQTASMKNAFIPKVTECLISPDARIRQAASYIIGVCAQYAPSTYADVCIPTLDTLVQIVDFPGSKLEENRSSTENASAAIAKILYAYNSNIPNVDTYTANWFKTLPTITDKEAASFNYQFLSQLIENNSPIVCAQSNISAVVDSVIQALNERSLTEREGQTVISSVKKLLGFLPSSDAMAIFNRYPADIMEKVHKWFA

Target: His6-tagged human RanGTP Q69L (human, UniProt P62826 1-216, Q69L)
Assay: pull-down

Binder	binding result
B1	binds
B2	binds
